Where no end group is shown, it is not given here.
Biological target: T1, neuromedin-B preferring receptor (NMB-R) of C6 rodent glioblastoma cells (rodent), P24053
T1 chain: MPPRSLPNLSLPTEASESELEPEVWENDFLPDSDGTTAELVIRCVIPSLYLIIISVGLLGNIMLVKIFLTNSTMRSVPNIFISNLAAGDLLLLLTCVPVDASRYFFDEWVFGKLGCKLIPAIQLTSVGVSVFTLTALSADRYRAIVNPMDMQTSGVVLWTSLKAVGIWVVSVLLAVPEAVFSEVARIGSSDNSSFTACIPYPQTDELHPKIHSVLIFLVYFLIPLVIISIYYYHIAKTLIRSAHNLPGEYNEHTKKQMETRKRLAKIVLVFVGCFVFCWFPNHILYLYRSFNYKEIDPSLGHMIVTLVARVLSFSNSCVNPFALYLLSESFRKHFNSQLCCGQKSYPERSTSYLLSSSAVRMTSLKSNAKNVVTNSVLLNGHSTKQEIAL
Test: 125I-NMB competition, C6 cells

## EQRYGNQWAVGHLM-NH2 (also: name truncated at 'p…', N-terminal modification unresolved) [p…-NH2]
  IC50: 3.36 nM
